We go through one molecule from patent US8148141.

This assay deals with amylase. Briefly: fluorescence of immobilized carboxyfluorescein-labeled peptide on chip, ex 490 nm / em 520 nm, 1.0 uM amylase, 25 C, 5 min.

Ends that are not written are not given here. carboxyfluorescein = carboxyfluorescein (fluorescent group)

For the molecule K(carboxyfluorescein)YQSWRYSQAC-NH2 [Lys(Rf)-Tyr-Gln-Ser-Trp-Arg-Tyr-Ser-Gln-Ala-Cys-NH2], the increase of the fluorescence intensity (fold) was 10 times.
